Results: patent US20250304643A1 (BAINAN BIOTECH, published 2025)
*1 amine or outer side, *2 acyl side, *3 side chain or, on linkers, in order; H or OH if unused. Where no end group is shown, it is not given here. Side-chain parts run from the residue outwards. [ ]: non-standard residue; d: D form. The star is where a group is joined. γGlu = O=C(O)[C@H](CCC(=O)[*:2])N[*:1]; HOOC(CH2)8CO = O=C(O)CCCCCCCCC(=O)*; Palmitoyl = CCCCCCCCCCCCCCCC(=O)*; Decanoyl = CCCCCCCCCC(=O)*; Aib = CC(C)(N)C(=O)O

T1: human glucose-dependent insulinotropic polypeptide receptor (human, UniProt P48546 22-466)
T1 sequence (looked up): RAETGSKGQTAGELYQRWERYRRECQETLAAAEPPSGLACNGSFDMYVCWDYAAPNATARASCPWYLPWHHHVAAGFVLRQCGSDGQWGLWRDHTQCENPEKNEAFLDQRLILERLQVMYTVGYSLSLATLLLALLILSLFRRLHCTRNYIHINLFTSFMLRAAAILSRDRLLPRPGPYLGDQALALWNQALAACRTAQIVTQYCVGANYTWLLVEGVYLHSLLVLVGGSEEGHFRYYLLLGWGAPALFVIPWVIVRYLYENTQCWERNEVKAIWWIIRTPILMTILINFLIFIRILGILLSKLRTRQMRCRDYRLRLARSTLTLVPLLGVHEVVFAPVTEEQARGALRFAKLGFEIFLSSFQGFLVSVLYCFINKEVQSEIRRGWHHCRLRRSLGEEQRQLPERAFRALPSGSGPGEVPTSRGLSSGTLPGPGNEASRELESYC


Target: T1, human glucose-dependent insulinotropic …
Experiment: cell-based or functional assay

Binder | Efficacy GIPR
Palmitoyl-H[Aib]DGTFISDYSTILDNLAARDFIEWLIQTKITK-OH (SMILES CCCCCCCCCCCCCCCC(=O)N[C@@H](Cc1c[nH]cn1)C(=O)NC(C)(C)C(=O)N[C@@H](CC(=O)O)C(=O)NCC(=O)N[C@H](C(=O)N[C@@H](Cc1ccccc1)C(=O)N[C@H](C(=O)N[C@@H](CO)C(=O)N[C@@H](CC(=O)O)C(=O)N[C@@H](Cc1ccc(O)cc1)C(=O)N[C@@H](CO)C(=O)N[C@H](C(=O)N[C@H](C(=O)N[C@@H](CC(C)C)C(=O)N[C@@H](CC(=O)O)C(=O)N[C@@H](CC(N)=O)C(=O)N[C@@H](CC(C)C)C(=O)N[C@@H](C)C(=O)N[C@@H](C)C(=O)N[C@@H](CCCNC(=N)N)C(=O)N[C@@H](CC(=O)O)C(=O)N[C@@H](Cc1ccccc1)C(=O)N[C@H](C(=O)N[C@@H](CCC(=O)O)C(=O)N[C@@H](Cc1c[nH]c2ccccc12)C(=O)N[C@@H](CC(C)C)C(=O)N[C@H](C(=O)N[C@@H](CCC(N)=O)C(=O)N[C@H](C(=O)N[C@@H](CCCCN)C(=O)N[C@H](C(=O)N[C@H](C(=O)N[C@@H](CCCCN)C(=O)O)[C@@H](C)O)[C@@H](C)CC)[C@@H](C)O)[C@@H](C)CC)[C@@H](C)CC)[C@@H](C)CC)[C@@H](C)O)[C@@H](C)CC)[C@@H](C)O) [Compound no. 7] | 114%
Palmitoyl-H[Aib]DGTFISDYSTILDNLAARDFIEWLIQTKIT-OH (SMILES CCCCCCCCCCCCCCCC(=O)N[C@@H](Cc1c[nH]cn1)C(=O)NC(C)(C)C(=O)N[C@@H](CC(=O)O)C(=O)NCC(=O)N[C@H](C(=O)N[C@@H](Cc1ccccc1)C(=O)N[C@H](C(=O)N[C@@H](CO)C(=O)N[C@@H](CC(=O)O)C(=O)N[C@@H](Cc1ccc(O)cc1)C(=O)N[C@@H](CO)C(=O)N[C@H](C(=O)N[C@H](C(=O)N[C@@H](CC(C)C)C(=O)N[C@@H](CC(=O)O)C(=O)N[C@@H](CC(N)=O)C(=O)N[C@@H](CC(C)C)C(=O)N[C@@H](C)C(=O)N[C@@H](C)C(=O)N[C@@H](CCCNC(=N)N)C(=O)N[C@@H](CC(=O)O)C(=O)N[C@@H](Cc1ccccc1)C(=O)N[C@H](C(=O)N[C@@H](CCC(=O)O)C(=O)N[C@@H](Cc1c[nH]c2ccccc12)C(=O)N[C@@H](CC(C)C)C(=O)N[C@H](C(=O)N[C@@H](CCC(N)=O)C(=O)N[C@H](C(=O)N[C@@H](CCCCN)C(=O)N[C@H](C(=O)N[C@H](C(=O)O)[C@@H](C)O)[C@@H](C)CC)[C@@H](C)O)[C@@H](C)CC)[C@@H](C)CC)[C@@H](C)CC)[C@@H](C)O)[C@@H](C)CC)[C@@H](C)O) [Compound no. 8] | 108%
Decanoyl-HADGTFISDYSTILDNLAAKDFINWLIQTKITKNDWKHNITQ [Compound no. 3] | 76%
H-H[Aib]DGTFISDYSK([γGlu-Palmitoyl])ILDNLAARDFINWLIQTKITK-OH (SMILES CCCCCCCCCCCCCCCC(=O)N[C@@H](CCC(=O)NCCCC[C@H](NC(=O)[C@H](CO)NC(=O)[C@H](Cc1ccc(O)cc1)NC(=O)[C@H](CC(=O)O)NC(=O)[C@H](CO)NC(=O)[C@@H](NC(=O)[C@H](Cc1ccccc1)NC(=O)[C@@H](NC(=O)CNC(=O)[C@H](CC(=O)O)NC(=O)C(C)(C)NC(=O)[C@@H](N)Cc1c[nH]cn1)[C@@H](C)O)[C@@H](C)CC)C(=O)N[C@H](C(=O)N[C@@H](CC(C)C)C(=O)N[C@@H](CC(=O)O)C(=O)N[C@@H](CC(N)=O)C(=O)N[C@@H](CC(C)C)C(=O)N[C@@H](C)C(=O)N[C@@H](C)C(=O)N[C@@H](CCCNC(=N)N)C(=O)N[C@@H](CC(=O)O)C(=O)N[C@@H](Cc1ccccc1)C(=O)N[C@H](C(=O)N[C@@H](CC(N)=O)C(=O)N[C@@H](Cc1c[nH]c2ccccc12)C(=O)N[C@@H](CC(C)C)C(=O)N[C@H](C(=O)N[C@@H](CCC(N)=O)C(=O)N[C@H](C(=O)N[C@@H](CCCCN)C(=O)N[C@H](C(=O)N[C@H](C(=O)N[C@@H](CCCCN)C(=O)O)[C@@H](C)O)[C@@H](C)CC)[C@@H](C)O)[C@@H](C)CC)[C@@H](C)CC)[C@@H](C)CC)C(=O)O) [Compound no. 12] | 107%
Palmitoyl-HADGTFISDYSTILDNLAARDFINWLIQTKITD [Compound no. 4] | 96%

More lines, now with the values ahead:

Efficacy GIPR | Binder
77% | {HOOC(CH2)8CO}-H[Aib]DGTFISDYST[Aib]LDNLAARDFINWLIQTKITK-OH (SMILES CC[C@H](C)[C@H](NC(=O)[C@H](Cc1ccccc1)NC(=O)[C@H](CC(=O)O)NC(=O)[C@H](CCCNC(=N)N)NC(=O)[C@H](C)NC(=O)[C@H](C)NC(=O)[C@H](CC(C)C)NC(=O)[C@H](CC(N)=O)NC(=O)[C@H](CC(=O)O)NC(=O)[C@H](CC(C)C)NC(=O)C(C)(C)NC(=O)[C@@H](NC(=O)[C@H](CO)NC(=O)[C@H](Cc1ccc(O)cc1)NC(=O)[C@H](CC(=O)O)NC(=O)[C@H](CO)NC(=O)[C@@H](NC(=O)[C@H](Cc1ccccc1)NC(=O)[C@@H](NC(=O)CNC(=O)[C@H](CC(=O)O)NC(=O)C(C)(C)NC(=O)[C@H](Cc1c[nH]cn1)NC(=O)CCCCCCCCC(=O)O)[C@@H](C)O)[C@@H](C)CC)[C@@H](C)O)C(=O)N[C@@H](CC(N)=O)C(=O)N[C@@H](Cc1c[nH]c2ccccc12)C(=O)N[C@@H](CC(C)C)C(=O)N[C@H](C(=O)N[C@@H](CCC(N)=O)C(=O)N[C@H](C(=O)N[C@@H](CCCCN)C(=O)N[C@H](C(=O)N[C@H](C(=O)N[C@@H](CCCCN)C(=O)O)[C@@H](C)O)[C@@H](C)CC)[C@@H](C)O)[C@@H](C)CC) [Compound no. 18]
106% | H[Aib]DGTFISDYSK([γGlu-Palmitoyl])[Aib]LDNLAARDFINWLIQTKITK-OH (N-terminus assumed; SMILES CCCCCCCCCCCCCCCC(=O)N[C@@H](CCC(=O)NCCCC[C@H](NC(=O)[C@H](CO)NC(=O)[C@H](Cc1ccc(O)cc1)NC(=O)[C@H](CC(=O)O)NC(=O)[C@H](CO)NC(=O)[C@@H](NC(=O)[C@H](Cc1ccccc1)NC(=O)[C@@H](NC(=O)CNC(=O)[C@H](CC(=O)O)NC(=O)C(C)(C)NC(=O)[C@@H](N)Cc1c[nH]cn1)[C@@H](C)O)[C@@H](C)CC)C(=O)NC(C)(C)C(=O)N[C@@H](CC(C)C)C(=O)N[C@@H](CC(=O)O)C(=O)N[C@@H](CC(N)=O)C(=O)N[C@@H](CC(C)C)C(=O)N[C@@H](C)C(=O)N[C@@H](C)C(=O)N[C@@H](CCCNC(=N)N)C(=O)N[C@@H](CC(=O)O)C(=O)N[C@@H](Cc1ccccc1)C(=O)N[C@H](C(=O)N[C@@H](CC(N)=O)C(=O)N[C@@H](Cc1c[nH]c2ccccc12)C(=O)N[C@@H](CC(C)C)C(=O)N[C@H](C(=O)N[C@@H](CCC(N)=O)C(=O)N[C@H](C(=O)N[C@@H](CCCCN)C(=O)N[C@H](C(=O)N[C@H](C(=O)N[C@@H](CCCCN)C(=O)O)[C@@H](C)O)[C@@H](C)CC)[C@@H](C)O)[C@@H](C)CC)[C@@H](C)CC)C(=O)O) [Compound no. 35]
